# Measured values taken from patent US20140087995A1 (published 2014).
# Numbered stars: 1 amine (or outer) side, 2 acyl side, 3 side chain; on linkers, the order of the positions; unused ones are H or OH. Bridge positions count the residues as written; N and C are the ends. Side chains are listed from the residue outwards. Ends that are not written are not given here. * marks the point of attachment. C20 diacid = O=C(O)CCCCCCCCCCCCCCCCCCC(=O)*; γGlu = O=C(O)[C@H](CCC(=O)[*:2])N[*:1]; AEEA = NCCOCCOCC(=O)O
# T1: human amylin receptor (human calcitonin receptor co-expressed with RAMP-3; amylin 3(a) receptor) (human, UniProt P30988 25-474; O60896 24-148, limits assumed)
# T1 construct: whole, on cells; Used as cell membranes prepared from Amylin 3(a)/CRE-luc BHK cells (Assay V), not as intact cells; also called hAmylin-R; hAmylinR
# T1 sequence (looked up) 1: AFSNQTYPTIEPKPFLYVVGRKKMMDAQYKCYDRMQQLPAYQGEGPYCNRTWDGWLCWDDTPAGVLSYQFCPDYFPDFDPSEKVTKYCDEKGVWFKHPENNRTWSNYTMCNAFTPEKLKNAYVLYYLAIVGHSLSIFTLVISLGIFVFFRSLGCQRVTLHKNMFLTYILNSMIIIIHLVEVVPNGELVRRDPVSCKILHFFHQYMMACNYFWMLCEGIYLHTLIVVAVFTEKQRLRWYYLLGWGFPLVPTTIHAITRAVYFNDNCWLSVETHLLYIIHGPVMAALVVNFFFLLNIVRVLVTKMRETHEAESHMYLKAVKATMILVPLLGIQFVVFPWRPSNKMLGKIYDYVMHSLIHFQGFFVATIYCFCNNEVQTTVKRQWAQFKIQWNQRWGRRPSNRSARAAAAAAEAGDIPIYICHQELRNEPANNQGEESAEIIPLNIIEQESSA
# T1 sequence (looked up) 2: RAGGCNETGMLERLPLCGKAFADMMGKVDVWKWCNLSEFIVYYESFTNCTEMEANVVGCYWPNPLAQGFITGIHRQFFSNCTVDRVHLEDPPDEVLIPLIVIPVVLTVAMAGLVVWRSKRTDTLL
# T2: human calcitonin receptor (human, UniProt P30988 25-474)
# T2 construct: whole, on cells; Used as cell membranes prepared from the transfected BHK cells (Assay VII), not as intact cells; also called hCTR; hCT
# T2 sequence (looked up): T1 sequence (looked up) 1
# B1: N^ε1-[2-[2-[2-[[(4S)-4-carboxy-4-(19-carboxynonadecanoylamino)butanoyl]amino]ethoxy]ethoxy]acetyl]-[Arg17,Pro21,Pro27,Pro28,Pro34]-h-amylin (peptide)
# peptide: K([AEEA-γGlu-C20 diacid])CNTATCATQRLANFLRHSSPNFGAIPPSTNVGPNTY-NH2
# modifications: disulfide 2-7; N-terminus assumed
# SMILES: CC[C@H](C)[C@H](NC(=O)[C@H](C)NC(=O)CNC(=O)[C@H](Cc1ccccc1)NC(=O)[C@H](CC(N)=O)NC(=O)[C@@H]1CCCN1C(=O)[C@H](CO)NC(=O)[C@H](CO)NC(=O)[C@H](Cc1c[nH]cn1)NC(=O)[C@H](CCCNC(=N)N)NC(=O)[C@H](CC(C)C)NC(=O)[C@H](Cc1ccccc1)NC(=O)[C@H](CC(N)=O)NC(=O)[C@H](C)NC(=O)[C@H](CC(C)C)NC(=O)[C@H](CCCNC(=N)N)NC(=O)[C@H](CCC(N)=O)NC(=O)[C@@H](NC(=O)[C@H](C)NC(=O)[C@@H]1CSSC[C@H](NC(=O)[C@@H](N)CCCCNC(=O)COCCOCCNC(=O)CC[C@H](NC(=O)CCCCCCCCCCCCCCCCCCC(=O)O)C(=O)O)C(=O)N[C@@H](CC(N)=O)C(=O)N[C@@H]([C@@H](C)O)C(=O)N[C@@H](C)C(=O)N[C@@H]([C@@H](C)O)C(=O)N1)[C@@H](C)O)C(=O)N1CCC[C@H]1C(=O)N1CCC[C@H]1C(=O)N[C@@H](CO)C(=O)N[C@H](C(=O)N[C@@H](CC(N)=O)C(=O)N[C@H](C(=O)NCC(=O)N1CCC[C@H]1C(=O)N[C@@H](CC(N)=O)C(=O)N[C@H](C(=O)N[C@@H](Cc1ccc(O)cc1)C(N)=O)[C@@H](C)O)C(C)C)[C@@H](C)O
# notes: also called compound 55
# B2: N^ε1-[2-[2-[2-[[(4S)-4-carboxy-4-(19-carboxynonadecanoylamino)butanoyl]amino]ethoxy]ethoxy]acetyl]-[Arg17,Pro21,Pro27,Pro29,Pro34]-h-amylin (peptide)
# peptide: K([AEEA-γGlu-C20 diacid])CNTATCATQRLANFLRHSSPNFGAIPSPTNVGPNTY-NH2
# modifications: disulfide 2-7; N-terminus assumed
# SMILES: CC[C@H](C)[C@H](NC(=O)[C@H](C)NC(=O)CNC(=O)[C@H](Cc1ccccc1)NC(=O)[C@H](CC(N)=O)NC(=O)[C@@H]1CCCN1C(=O)[C@H](CO)NC(=O)[C@H](CO)NC(=O)[C@H](Cc1c[nH]cn1)NC(=O)[C@H](CCCNC(=N)N)NC(=O)[C@H](CC(C)C)NC(=O)[C@H](Cc1ccccc1)NC(=O)[C@H](CC(N)=O)NC(=O)[C@H](C)NC(=O)[C@H](CC(C)C)NC(=O)[C@H](CCCNC(=N)N)NC(=O)[C@H](CCC(N)=O)NC(=O)[C@@H](NC(=O)[C@H](C)NC(=O)[C@@H]1CSSC[C@H](NC(=O)[C@@H](N)CCCCNC(=O)COCCOCCNC(=O)CC[C@H](NC(=O)CCCCCCCCCCCCCCCCCCC(=O)O)C(=O)O)C(=O)N[C@@H](CC(N)=O)C(=O)N[C@@H]([C@@H](C)O)C(=O)N[C@@H](C)C(=O)N[C@@H]([C@@H](C)O)C(=O)N1)[C@@H](C)O)C(=O)N1CCC[C@H]1C(=O)N[C@@H](CO)C(=O)N1CCC[C@H]1C(=O)N[C@H](C(=O)N[C@@H](CC(N)=O)C(=O)N[C@H](C(=O)NCC(=O)N1CCC[C@H]1C(=O)N[C@@H](CC(N)=O)C(=O)N[C@H](C(=O)N[C@@H](Cc1ccc(O)cc1)C(N)=O)[C@@H](C)O)C(C)C)[C@@H](C)O
# notes: also called compound 56
# B3: N^ε1-[2-[2-[2-[[(4S)-4-carboxy-4-(19-carboxynonadecanoylamino)butanoyl]amino]ethoxy]ethoxy]acetyl]-[Arg17,Pro21,Pro27,Pro31,His35]-h-amylin (peptide)
# peptide: K([AEEA-γGlu-C20 diacid])CNTATCATQRLANFLRHSSPNFGAIPSSTPVGSHTY-NH2
# modifications: disulfide 2-7; N-terminus assumed
# SMILES: CC[C@H](C)[C@H](NC(=O)[C@H](C)NC(=O)CNC(=O)[C@H](Cc1ccccc1)NC(=O)[C@H](CC(N)=O)NC(=O)[C@@H]1CCCN1C(=O)[C@H](CO)NC(=O)[C@H](CO)NC(=O)[C@H](Cc1c[nH]cn1)NC(=O)[C@H](CCCNC(=N)N)NC(=O)[C@H](CC(C)C)NC(=O)[C@H](Cc1ccccc1)NC(=O)[C@H](CC(N)=O)NC(=O)[C@H](C)NC(=O)[C@H](CC(C)C)NC(=O)[C@H](CCCNC(=N)N)NC(=O)[C@H](CCC(N)=O)NC(=O)[C@@H](NC(=O)[C@H](C)NC(=O)[C@@H]1CSSC[C@H](NC(=O)[C@@H](N)CCCCNC(=O)COCCOCCNC(=O)CC[C@H](NC(=O)CCCCCCCCCCCCCCCCCCC(=O)O)C(=O)O)C(=O)N[C@@H](CC(N)=O)C(=O)N[C@@H]([C@@H](C)O)C(=O)N[C@@H](C)C(=O)N[C@@H]([C@@H](C)O)C(=O)N1)[C@@H](C)O)C(=O)N1CCC[C@H]1C(=O)N[C@@H](CO)C(=O)N[C@@H](CO)C(=O)N[C@H](C(=O)N1CCC[C@H]1C(=O)N[C@H](C(=O)NCC(=O)N[C@@H](CO)C(=O)N[C@@H](Cc1c[nH]cn1)C(=O)N[C@H](C(=O)N[C@@H](Cc1ccc(O)cc1)C(N)=O)[C@@H](C)O)C(C)C)[C@@H](C)O
# notes: also called compound 57
# B4: N^ε1-[2-[2-[2-[[(4S)-4-carboxy-4-(19-carboxynonadecanoylamino)butanoyl]amino]ethoxy]ethoxy]acetyl]-[Arg17,Pro21,Pro27,Pro29,Pro31]-h-amylin (peptide)
# peptide: K([AEEA-γGlu-C20 diacid])CNTATCATQRLANFLRHSSPNFGAIPSPTPVGSNTY-NH2
# modifications: disulfide 2-7; N-terminus assumed
# SMILES: CC[C@H](C)[C@H](NC(=O)[C@H](C)NC(=O)CNC(=O)[C@H](Cc1ccccc1)NC(=O)[C@H](CC(N)=O)NC(=O)[C@@H]1CCCN1C(=O)[C@H](CO)NC(=O)[C@H](CO)NC(=O)[C@H](Cc1c[nH]cn1)NC(=O)[C@H](CCCNC(=N)N)NC(=O)[C@H](CC(C)C)NC(=O)[C@H](Cc1ccccc1)NC(=O)[C@H](CC(N)=O)NC(=O)[C@H](C)NC(=O)[C@H](CC(C)C)NC(=O)[C@H](CCCNC(=N)N)NC(=O)[C@H](CCC(N)=O)NC(=O)[C@@H](NC(=O)[C@H](C)NC(=O)[C@@H]1CSSC[C@H](NC(=O)[C@@H](N)CCCCNC(=O)COCCOCCNC(=O)CC[C@H](NC(=O)CCCCCCCCCCCCCCCCCCC(=O)O)C(=O)O)C(=O)N[C@@H](CC(N)=O)C(=O)N[C@@H]([C@@H](C)O)C(=O)N[C@@H](C)C(=O)N[C@@H]([C@@H](C)O)C(=O)N1)[C@@H](C)O)C(=O)N1CCC[C@H]1C(=O)N[C@@H](CO)C(=O)N1CCC[C@H]1C(=O)N[C@H](C(=O)N1CCC[C@H]1C(=O)N[C@H](C(=O)NCC(=O)N[C@@H](CO)C(=O)N[C@@H](CC(N)=O)C(=O)N[C@H](C(=O)N[C@@H](Cc1ccc(O)cc1)C(N)=O)[C@@H](C)O)C(C)C)[C@@H](C)O
# notes: also called compound 54
# B5: N^ε1-[2-[2-[2-[[(4S)-4-carboxy-4-(19-carboxynonadecanoylamino)butanoyl]amino]ethoxy]ethoxy]acetyl]-[Arg17,Pro21,Pro27,Pro34,His35]-h-amylin (peptide)
# peptide: K([AEEA-γGlu-C20 diacid])CNTATCATQRLANFLRHSSPNFGAIPSSTNVGPHTY-NH2
# modifications: disulfide 2-7; N-terminus assumed
# SMILES: CC[C@H](C)[C@H](NC(=O)[C@H](C)NC(=O)CNC(=O)[C@H](Cc1ccccc1)NC(=O)[C@H](CC(N)=O)NC(=O)[C@@H]1CCCN1C(=O)[C@H](CO)NC(=O)[C@H](CO)NC(=O)[C@H](Cc1c[nH]cn1)NC(=O)[C@H](CCCNC(=N)N)NC(=O)[C@H](CC(C)C)NC(=O)[C@H](Cc1ccccc1)NC(=O)[C@H](CC(N)=O)NC(=O)[C@H](C)NC(=O)[C@H](CC(C)C)NC(=O)[C@H](CCCNC(=N)N)NC(=O)[C@H](CCC(N)=O)NC(=O)[C@@H](NC(=O)[C@H](C)NC(=O)[C@@H]1CSSC[C@H](NC(=O)[C@@H](N)CCCCNC(=O)COCCOCCNC(=O)CC[C@H](NC(=O)CCCCCCCCCCCCCCCCCCC(=O)O)C(=O)O)C(=O)N[C@@H](CC(N)=O)C(=O)N[C@@H]([C@@H](C)O)C(=O)N[C@@H](C)C(=O)N[C@@H]([C@@H](C)O)C(=O)N1)[C@@H](C)O)C(=O)N1CCC[C@H]1C(=O)N[C@@H](CO)C(=O)N[C@@H](CO)C(=O)N[C@H](C(=O)N[C@@H](CC(N)=O)C(=O)N[C@H](C(=O)NCC(=O)N1CCC[C@H]1C(=O)N[C@@H](Cc1c[nH]cn1)C(=O)N[C@H](C(=O)N[C@@H](Cc1ccc(O)cc1)C(N)=O)[C@@H](C)O)C(C)C)[C@@H](C)O
# notes: also called compound 58
# Target: T1, human amylin receptor (human calcitonin …)
# Assay: ratio of hCTR binding IC50 to hAmylin-R binding IC50 (reference: human calcitonin receptor)
# Experimental: The resulting pellet was resuspended, homogenized and centrifuged (20.000 rpm, 15 min) in a buffer containing 20 mM Na-HEPES and 0.1 mM EDTA (pH 7.4, buffer 2). The resulting pellet was resuspended in buffer 2 and protein concentration was measured (BCA protein Assay, Pierce). The homogenate was kept cold during the whole procedure. The membranes were kept at −80° C. until use. The assay was performed in a 384 well Optiplate (PerkinElmer) in a total volume of 40 ul. Membranes were mixed with SPA beads. Final concentration of membranes 35 ng/μL final and SPA beads was 0.05 mg/well. Test-compounds were dissolved in DMSO and further diluted in assay buffer (50 mM Hepes, pH 7.4, 1 mM CaCl2, 5 mM MgCl₂, 0.1% OA and 0.02% Tween20). […] The final mixture was incubated with shaking at 400 rpm for 120 min at 25° C. prior to centrifugation (1500 rpm, 10 min). Samples were analyzed on TopCounter™ (Packard). The IC₅₀ was calculated using (one site binding competition analysis) GraphPad Prism5 as a measure of receptor affinity.
# Membranes were prepared in the following way; the cells were rinsed with PBS and incubated with Versene for approximately 5 min before harvesting. The cells were flushed with PBS and the cell-suspension was centrifuged for 5 min at 1000 rpm. Cells were homogenized (Ultrathurrax) in a buffer containing 20 mM Na-HEPES and 10 mM EDTA (pH 7.4) and centrifuged at 20.000 rpm for 15 min. The resulting pellet was resuspended, homogenized and centrifuged (20.000 rpm, 15 min) in a buffer containing 20 mM Na-HEPES and 0.1 mM EDTA (pH 7.4, buffer 2). The resulting pellet was resuspended in buffer 2 and protein concentration was measured (BCA protein Assay, Pierce). The homogenate was kept cold during the whole procedure. The membranes were kept at −80° C. until use. Assay was performed in a 384 well Optiplate (PerkinElmer) in a total volume of 40 ul. Membranes were mixed with SPA beads.
row,Ratio hCT/hAmylin binding,Binder
1,51.8,B1
2,42.6,B2
3,133,B3
4,146,B4
5,109,B5

# Target: T2, human calcitonin receptor
# Assay: SPA competition against 125I-calcitonin, membranes with human calcitonin receptor (Assay VII)
# Method in brief: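 BHK hCTR membranes 35 ng/μL + SPA beads 0.05 mg/well; buffer 50 mM Hepes pH 7.4, 1 mM CaCl2, 5 mM MgCl₂, 0.1% OA, 0.02% Tween20. 120 min, 25° C., shaking. Scintillation count; IC50 by one-site binding competition.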
row,IC50 [nM],Binder
1,2.17,B1
2,2.09,B2
3,15.3,B3
4,4.38,B4
5,9.63,B5
